# Assay results taken from patent US20100292442A1 (Amgen, published 2010).
# Substitutions are numbered along the chain they refer to.
# B1: AMH14/AML14 (antibody, V domains shown)
# VH: QVQLVQSGAEVKKPGASVKVSCKASGYTFTRYGISWVRQAPGQGLEWMGWISTYSGNTNYAQKLQGRVTMTTDTSTSTAYMELRSLRSDDTAVYYCARRQLYFDYWGQGTLVTVSS
# VL: EIVMTQSPATLSVSPGERATLSCRASQSVSSNLAWFQQKPGQAPRPLIYDASTRATGVPARFSGSGSGTDFTLTISSLQSEDFAVYYCQQYDNWPLTFGGGTKVEIK
# notes: Fully human mAb from IgG2 XenoMouse hybridomas; also called AM-14
# B2: AMH17/AML17 (antibody, V domains shown)
# VH: B1 VH with S17A, S25T, F29L, R31S, T53A, N59K, R99K, Y102V
# VL: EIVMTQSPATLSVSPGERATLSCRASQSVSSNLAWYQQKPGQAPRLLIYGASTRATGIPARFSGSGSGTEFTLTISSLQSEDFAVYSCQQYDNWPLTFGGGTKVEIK
# notes: Fully human mAb from IgG2 XenoMouse hybridomas; also called AM-17
# B3: AMH12/AML12 (antibody, V domains shown)
# VH: B1 VH with F29L, R31S, S55K, R99K, Y102V
# VL: B1 VL with V29I, N32S, F36Y, P46L, D50G, V58I, D70E, D82N
# notes: Fully human mAb from IgG2 XenoMouse hybridomas; also called AM-12
# B4: AMH16/AML16 (antibody, V domains shown)
# VH: B1 VH with R31S, T53A, S55N, N59K, A79V, R99K, Y102V
# VL: EIVMTQSPATLSVSPGERATLSCRASQSISTSLAWYQQKPGQAPRLLIYGTSTRATGIPARFSGSGSGTEFTLTISSLQSEDFAVYFCQQYDIWPLTFGGGTKVEIK
# notes: Fully human mAb from IgG2 XenoMouse hybridomas; also called AM-16
# B5: AMH4/AML4 (antibody, V domains shown)
# VH: QVQLVESGGGVVQPGRSLRLSCAASGINFSSYGMHWVRQAPGKGLEWVAVIWYDGSNKHYADSVKGRFTISRDNSKNTLYLQMNSLRAEDTAVYYCARDTGVYWGQGTLVTVSS
# VL: not shown
# notes: Fully human mAb from IgG2 XenoMouse hybridomas
# B6: AMH11/AML11 (antibody, V domains shown)
# VH: B5 VH with A24T, N28T, H59Y, G101K, V102D
# VL: EIVMTQSPATLSVSPGERATLSCRASQSVSSNLAWYQQKPGQAPRLLIYGASTRAAGIPARFSGGGSGTAFTLTISNLQSEDFAVYYCQHYINWPKWTFGQGTKVDIK
# notes: as for B5
# B7: AMH10/AML10 (antibody, V domains shown)
# VH: QVQLQESGPGLVKPSQTLSLTCTVSGGSISSGGYYWSWIRQHPGKGLEWIGYIYFSGSAYYNPSLKSRVAISVDTSKNQFSLKLSSVTAADTAVYYCAREYYDSSGYPDAFDIWGQGTMVTVSS
# VL: DIQMTQSPSSVSASVGDRVTITCRASQGIRSWLAWYQQKPGKAPKLLIFAASSLQSGVPSRFSGSGSGTEFTLTISSLQPEDFATYYCQQANNFPRTFGQGTKVEIK
# notes: Fully human mAb from IgG2 XenoMouse hybridomas; also called AM-10
# B8: AMH21/AML21 (antibody, V domains shown)
# VH: EVQLVESGGGSVQPGGSLRLSCAASGFTFSSYSMNWVRQAPGKGLEWVSIISSRSSIIHYADSVKGRFTISRDNAKNSLYLQMNSLRDEDTAVYYCARPKVGGGMDVWGQGTTVTVSS
# VL: DIQMTQSPSSLSASVGDRVTITCRASQGISNYLAWYQQKPGKFPELLIYAASTLQSGVPSRFSGSGSGTDFTLTISSLQPEDVATYYCQKYNRAPFTFGPGTKVDIK
# notes: Fully human mAb from IgG2 XenoMouse hybridomas; also called AM-21
# B9: AMH20/AML20 (antibody, V domains shown)
# VH: B8 VH with S11L, I50F, S53A, I57T, H59Y
# VL: B8 VL
# notes: Fully human mAb from IgG2 XenoMouse hybridomas; also called AM-20
# B10: AMH7/AML7 (antibody, V domains shown)
# VH: QVQLVQSGAEVKKPGASVKVSCKASGYTLTRYGISWVRQAPGQGLEWMGWISAYNGNTNYAQKLQGRVTMTTDTSTSTAYMELRSLRSDDTAVYYCARRDYDILTGYYNGFDPWGQGTLVTVSS
# VL: DIQMTQSPSSLSASVGDRVTITCRASQGIRNDLGWYQQKPGKAPKRLIYAASSLQSGVPSRFSGSGSGTEFTLTISSLQPEDFATYYCLQHKSYPLTFGGGTKVEIK
# notes: as for B5
# B11: AMH6/AML6 (antibody, V domains shown)
# VH: B10 VH
# VL: B10 VL
# notes: as for B5
# B12: AMH8/AML8 (antibody, V domains shown)
# VH: B10 VH with Y27N, L29F, R31G, K63N
# VL: B10 VL
# notes: as for B5
# B13: AMH18/AML18 (antibody, V domains shown)
# VH: QVQLVQSGAEVKKPGASVKVSCKASGYSFTDYYMHWVRQAPGQGLEWMGWMHPNSGGTDLAQRFQGRVTMTRDTSISTAYMELSRLRSDDTAVYYCARGGYCSTLSCSFYWYFDLWGRGTLVTVSS
# VL: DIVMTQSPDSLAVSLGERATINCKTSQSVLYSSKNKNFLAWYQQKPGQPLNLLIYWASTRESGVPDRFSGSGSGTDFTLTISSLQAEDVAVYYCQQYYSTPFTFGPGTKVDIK
# notes: as for B5
# B14: AMH15/AML15 (antibody, IgG2, V domains shown)
# VH: QVQLVESGGGVVQPGRSLRLSCAASGFTFSSYGMQWVRQAPGKGLEWVAVIWYDGNKKYYADSVKGRFTISRDNSKNTLYLQMNSLRAEDTAVYYCARGRVRDYYYGMDVWGQGTTVTVSS
# VL: B1 VL with A19V, T56A, V58I
# notes: Fully human mAb from IgG2 XenoMouse hybridomas; also called AM-15
# B15: AMH22/AML22 (antibody, V domains shown)
# VH: B1 VH with T53A
# VL: B1 VL with A19V, T56A, V58I
# notes: Fully human mAb from IgG2 XenoMouse hybridomas; also called AM-22
# B16: AMH1/AML1 (antibody, V domains shown)
# VH: QVQLQESGPGLVKPSETLSLTCTVSGGSISNYYWNWIRQSPGKGLEWIGDIYYSGSTNYNPSLKSRVTISVDTSKNQFSLKLSSVTTADTAVYYCARDGELANYYGSGSYQFYYYYGMDVWGQGTTVTVSS
# VL: B10 VL with Q3L, K92N, Y94N, L96F, G100P, E105D
# notes: as for B5
# B17: AMH5/AML5 (antibody, IgG2, V domains shown)
# VH: QVQLQESGPGLVKPSETLPLTCTVSGGSIRSYYWSWIRQPAGKGLEWIGRIYRSGNTIYNPSLKSRVTMSIDTSKNQFSLTLSSVTAADTAVYYCARENYSESSGLYYYYGMDVWGQGTTVTVSS
# VL: B10 VL with L54F, E70G, K92N, L96P, G100Q
# notes: Fully human mAb from IgG2 XenoMouse hybridomas; also called AM-5
# B18: AMH13/AML13 (antibody, V domains shown)
# VH: B14 VH
# VL: DIVMTQTPLSLSVTPGQPASIACKSSQSLLHSDGKTYLYWYLQKPGQPPQLLIYEVSTRFSGVPDRFSGSGSGTDFTLKISRVEAEDVGVFYCMQSIQLPLTFGGGTKVEIK
# notes: as for B5
# Target: cynomolgus IL-17RA on cells (cynomolgus)
# Test: cell-based or functional assay
row,Binder,"IC50, cynomolgous IL-17A-induced IL-6 production from JTC-12 cells [nM]"
1,B1,~1.2

# Target: T1, huIL-17RA-FLAG-polyHis (human, UniProt Q96F46 33-320)
# T1 construct: also called wild-type IL-17RA-FLAG-polyHis; HuIL-17RA-Flag-pHis
# Test: Luminex binning; bead huIgG control (f15) + IL-17RA [D00007 Fig. 8B]
# Experimental: Cross-competition studies were performed to determine IL-17RA binding characteristics of exemplary IL-17RA neutralizing antibodies. […] The method employed the Bio-Plex Workstation and software (BioRad, Hercules, Calif.), as well as reagents from Luminex® Corp. (Austin, Tex.). The manufacturers' basic protocols were followed except where noted below (see www.bio-rad.com and www.luminexcorp.com for details). […] The mouse-anti-human IgG coating was evaluated and the beads quantified by FACS. Each bead code was separately incubated with 10 ul of anti-IL-17RA antibody for 1 hour at room temperature and then washed. The beads were pooled and then dispensed to a 96-well filter plate (Millipore, Billerica, Mass., product #MSBVN1250). […] The PE-tagged monovalent antibody will detect the presence of the second mAb added to the well, but not the first mAb captured by the monovalent mouse-anti-human IgG antibody. Beads were resuspended in 120 ul PBSAT and at least 100 events/bead code were collected on the Bio-Plex workstation as per the manufacturer's recommended protocol.
row,Binder,normalized MFI
1,B2,56
2,B3,32
3,B4,95
4,B5,37
5,B6,84
6,B7,140
7,B8,28
8,B9,50
9,B10,123
10,B11,26
11,B12,54
12,B13,-5

# Target: T2, cynomolgus IL-17RA on cells (cynomolgus)
# T2 construct: whole, on cells; also called CHO-cynoIL-17RA; cyno IL-17RA+ CHO cells
# Test: FACS competition, non-clonal hybridoma supernatant; MFI of biotin-huIL-17A (competitor, 500 ng/ml) on cyno IL-17RA+ CHO cells
row,Binder,MFI [MFI]
1,B14,6
2,B1,10
3,B8,6

# Target: T2, cynomolgus IL-17RA on cells
# Test: as above
# Remark: another data set of the same source
row,Binder,MFI [MFI]
1,B15,18
2,B6,9
3,B16,11
4,B17,9

# Target: T2, cynomolgus IL-17RA on cells
# Test: as above
# Remark: another data set of the same source
# Experimental: (§1) Non-clonal hybridoma supernatants were prepared in volumes of 1-2 mls (the Ig concentrations were not determined for these supernatants). […] Anti-IL-17RA non-clonal hybridomas were selected for sub-cloning based on their performance in the CHO-IL-17RA FACS assay and HFF bioassay.
row,Binder,MFI [MFI]
1,B2,8
2,B3,6
3,B4,6
4,B18,6

# Target: T3, Human IL-17RA full-length expressed on the surface of cells (human, UniProt Q96F46 33-866)
# T3 construct: used here for over-expressing CHO cells (FACS) and for the native receptor on human fibroblasts (bioassays); also called IL-17RA CHO cells; CHO-huIL-17RA
# Test: FACS competition, non-clonal hybridoma supernatant; % cells positive for biotin-huIL-17A (competitor, 500 ng/ml) on huIL-17RA+ CHO cells
# Experimental: as §1
row,Binder,% positive [%]
1,B2,1.75
2,B3,1
3,B4,1.84
4,B18,1.52

# Target: T3, Human IL-17RA full-length expressed on …
# Test: FACS competition, non-clonal hybridoma supernatant; % cells positive for biotin-huIL-17A (competitor, 500 ng/ml) on huIL-17RA+ CHO cells (second % positive column)
# Experimental: as §1
row,Binder,% positive [%]
1,B2,1.23
2,B3,1.36
3,B4,0.76
4,B18,0.89
